B1: Azoarcus group I ribozyme (parent)
chain: GUGCCUUGCGCCGGGAAACCACGCAAGGGAUGGUGUCAAAUUCGGCGAAACCUAAGCGCCCGCCCGGGCGUAUGGCAACGCCGAGCCAAGCUUCGGCGCCUGCGCCGAUGAAGGUGUAGAGACUAGACGGCACCCACCUAAGGCAAACGCUAUGGUGAAGGCAUAGUCCAGGGAGUGGCGAAAGUCACACAAACCGG

Variants of: B1
Test: reverse-splicing fitness (ratio to wild type); higher = more active; in vitro selection; Mg2+ level not given
Outline: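 An in vitro group I ribozyme library with randomized positions was T7-transcribed and gel-purified. In triplicate, 10 pmol RNA in EPPS pH 7.5 was reacted with 50 pmoles of a 30-nt RNA substrate for 1 h at 37 °C across several added MgCl2 levels (1–48 mM), then stopped with EDTA. Products were reverse transcribed from a substrate-complementary primer, PCR-amplified and sequenced (HiSeq 4000). Fitness is a variant's read proportion after selection over that before, normalised to wild type.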

**Q.** With GUGCCUUGCGCCGGGAAACCACGCAAGGGAUGGUGUCAAAUUCGGCGAAACCUAAGCGCCCGCCCGGGCGUAUGGCAACGCUGAGCCAAGCUUCGGCGCCUGCGCCGAUGUAGGUGUAGAGACUAGACGGCACCCACCUAAGGCUAACGUUAUGGUGAAGGCAUAGUCGAGGGAGAGGCGAAAGUCACACAAACCGG [C82U A111U A145U C150U C169G U176A] as the variant, how does the reverse-splicing fitness read?
**A.** 0.0107

**Q.** Which reverse-splicing fitness does the source give for GUGCCUUGCGCCGGGAAACCACGCAAGGGAUGGUGUCAAAUUCGGCGAAACCUAAGCGCCCGCCCGGGCGUAUGGCAACGCUGAGCCAAGCUUCGGCGCCUGCGCCGAUGUAGGUGUAGAGACUAGACGGCACCCACCUAAGGCUAACGUUAUGGUGAAGGCAUAGUCGAGGGAGGGGCGAAAGUCACACAAACCGG [C82U A111U A145U C150U C169G U176G] here?
**A.** 0.00583

**Q.** With GUGCCUUGCGCCGGGAAACCACGCAAGGGAUGGUGUCAAAUUCGGCGAAACCUAAGCGCCCGCCCGGGCGUAUGGCAACGCUGAGCCAAGCUUCGGCGCCUGCGCCGAUGUAGGUGUAGAGACUAGACGGCACCCACCUAAGGCUAACGUUAUGGUGAAGGCAUAGUCGAGGGAGCGGCGAAAGUCACACAAACCGG [C82U A111U A145U C150U C169G U176C] as the variant, how does the reverse-splicing fitness read?
**A.** 0.0127

**Q.** With GUGCCUUGCGCCGGGAAACCACGCAAGGGAUGGUGUCAAAUUCGGCGAAACCUAAGCGCCCGCCCGGGCGUAUGGCAACGCUGAGCCAAGCUUCGGCGCCUGCGCCGAUGUAGGUGUAGAGACUAGACGGCACCCACCUAAGGCUAACGUUAUGGUGAAGGCAUAGUCUAGGGAGCGGCGAAAGUCACACAAACCGG [C82U A111U A145U C150U C169U U176C] as the variant, how does the reverse-splicing fitness read?
**A.** 0.0115

**Q.** For GUGCCUUGCGCCGGGAAACCACGCAAGGGAUGGUGUCAAAUUCGGCGAAACCUAAGCGCCCGCCCGGGCGUAUGGCAACGCUGAGCCAAGCUUCGGCGCCUGCGCCGAUGUAGGUGUAGAGACUAGACGGCACCCACCUAAGGCUAACGUUAUGGUGAAGGCAUAGUCUAGGGAGGGGCGAAAGUCACACAAACCGG [C82U A111U A145U C150U C169U U176G], which reverse-splicing fitness is on record?
**A.** 0.00582

**Q.** Which reverse-splicing fitness does the source give for GUGCCUUGCGCCGGGAAACCACGCAAGGGAUGGUGUCAAAUUCGGCGAAACCUAAGCGCCCGCCCGGGCGUAUGGCAACGCUGAGCCAAGCUUCGGCGCCUGCGCCGAUGUAGGUGUAGAGACUAGACGGCACCCACCUAAGGCUAACGUUAUGGUGAAGGCAUAGUCUAGGGAGAGGCGAAAGUCACACAAACCGG [C82U A111U A145U C150U C169U U176A] here?
**A.** 0.0148

**Q.** Which reverse-splicing fitness does the source give for GUGCCUUGCGCCGGGAAACCACGCAAGGGAUGGUGUCAAAUUCGGCGAAACCUAAGCGCCCGCCCGGGCGUAUGGCAACGCUGAGCCAAGCUUCGGCGCCUGCGCCGAUGUAGGUGUAGAGACUAGACGGCACCCACCUAAGGCUAACGCUAUGGUGAAGGCAUAGUCUAGGGAGGGGCGAAAGUCACACAAACCGG [C82U A111U A145U C169U U176G] here?
**A.** 0.00446

**Q.** With GUGCCUUGCGCCGGGAAACCACGCAAGGGAUGGUGUCAAAUUCGGCGAAACCUAAGCGCCCGCCCGGGCGUAUGGCAACGCUGAGCCAAGCUUCGGCGCCUGCGCCGAUGUAGGUGUAGAGACUAGACGGCACCCACCUAAGGCUAACGCUAUGGUGAAGGCAUAGUCUAGGGAGCGGCGAAAGUCACACAAACCGG [C82U A111U A145U C169U U176C] as the variant, how does the reverse-splicing fitness read?
**A.** 0.0127

**Q.** Which reverse-splicing fitness does the source give for GUGCCUUGCGCCGGGAAACCACGCAAGGGAUGGUGUCAAAUUCGGCGAAACCUAAGCGCCCGCCCGGGCGUAUGGCAACGCUGAGCCAAGCUUCGGCGCCUGCGCCGAUGUAGGUGUAGAGACUAGACGGCACCCACCUAAGGCUAACGCUAUGGUGAAGGCAUAGUCUAGGGAGAGGCGAAAGUCACACAAACCGG [C82U A111U A145U C169U U176A] here?
**A.** 0.0125

**Q.** For GUGCCUUGCGCCGGGAAACCACGCAAGGGAUGGUGUCAAAUUCGGCGAAACCUAAGCGCCCGCCCGGGCGUAUGGCAACGCUGAGCCAAGCUUCGGCGCCUGCGCCGAUGUAGGUGUAGAGACUAGACGGCACCCACCUAAGGCUAACGCUAUGGUGAAGGCAUAGUCAAGGGAGAGGCGAAAGUCACACAAACCGG [C82U A111U A145U C169A U176A], which reverse-splicing fitness is on record?
**A.** 0.00935

**Q.** With GUGCCUUGCGCCGGGAAACCACGCAAGGGAUGGUGUCAAAUUCGGCGAAACCUAAGCGCCCGCCCGGGCGUAUGGCAACGCUGAGCCAAGCUUCGGCGCCUGCGCCGAUGUAGGUGUAGAGACUAGACGGCACCCACCUAAGGCUAACGCUAUGGUGAAGGCAUAGUCAAGGGAGCGGCGAAAGUCACACAAACCGG [C82U A111U A145U C169A U176C] as the variant, how does the reverse-splicing fitness read?
**A.** 0.00904

**Q.** Which reverse-splicing fitness does the source give for GUGCCUUGCGCCGGGAAACCACGCAAGGGAUGGUGUCAAAUUCGGCGAAACCUAAGCGCCCGCCCGGGCGUAUGGCAACGCUGAGCCAAGCUUCGGCGCCUGCGCCGAUGUAGGUGUAGAGACUAGACGGCACCCACCUAAGGCUAACGCUAUGGUGAAGGCAUAGUCAAGGGAGGGGCGAAAGUCACACAAACCGG [C82U A111U A145U C169A U176G] here?
**A.** 0.00592

**Q.** For GUGCCUUGCGCCGGGAAACCACGCAAGGGAUGGUGUCAAAUUCGGCGAAACCUAAGCGCCCGCCCGGGCGUAUGGCAACGCUGAGCCAAGCUUCGGCGCCUGCGCCGAUGUAGGUGUAGAGACUAGACGGCACCCACCUAAGGCUAACGCUAUGGUGAAGGCAUAGUCGAGGGAGCGGCGAAAGUCACACAAACCGG [C82U A111U A145U C169G U176C], which reverse-splicing fitness is on record?
**A.** 0.0101

**Q.** Which reverse-splicing fitness does the source give for GUGCCUUGCGCCGGGAAACCACGCAAGGGAUGGUGUCAAAUUCGGCGAAACCUAAGCGCCCGCCCGGGCGUAUGGCAACGCUGAGCCAAGCUUCGGCGCCUGCGCCGAUGUAGGUGUAGAGACUAGACGGCACCCACCUAAGGCUAACGCUAUGGUGAAGGCAUAGUCGAGGGAGAGGCGAAAGUCACACAAACCGG [C82U A111U A145U C169G U176A] here?
**A.** 0.0101

**Q.** With GUGCCUUGCGCCGGGAAACCACGCAAGGGAUGGUGUCAAAUUCGGCGAAACCUAAGCGCCCGCCCGGGCGUAUGGCAACGCUGAGCCAAGCUUCGGCGCCUGCGCCGAUGUAGGUGUAGAGACUAGACGGCACCCACCUAAGGCUAACGCUAUGGUGAAGGCAUAGUCGAGGGAGGGGCGAAAGUCACACAAACCGG [C82U A111U A145U C169G U176G] as the variant, how does the reverse-splicing fitness read?
**A.** 0.0053

Source: the RNAGym collection of RNA variant scans (doi:10.1093/molbev/msab373)
